According to patent publication US20220204599A1 (PRESTIGE BIOPHARMA, published 2022):
Substitutions are numbered along the chain they refer to. One block for each binder: values may come before it.

What was measured:
[1] = target: T1, collagen triple helix repeat containing-1 (CTHRC1) protein (Homo sapiens (Human), UniProt Q96CG8 31-243); test: indirect ELISA, CTHRC1 coated at 5 µg/mL, anti-human Fc-HRP
T1 construct: The coated protein may in fact have been CTHRC1-His or CTHRC1-Fc
Method: The affinity of cCMAb45 and cCMAb96, which are anti-CTHRC1 chimeric antibodies, prepared in Example 1-3 to the CTHRC1 protein was verified. Indirect ELISA was performed to test the affinity of the antigens and antibodies.
100 μL of CTHRC1 was dispensed at a concentration of 5 μg/mL onto an immuno-plate and coated at 4° C. overnight. The next day, the coated CTHRC1 solution was discarded and blocked for 2 hours. Thereafter, the cCMAb45 and cCMAb96 antibodies were treated at different concentrations and reacted at room temperature for 2 hours, and the antibodies were discarded to remove the unbound antibodies, and then the plate was washed. The OD value was measured using the anti-human Fc-HRP as a second antibody that recognizes human constant regions. In particular, the higher OD value indicates higher affinity between CTHRC1 and the antibodies.

CTHRC1-His = target: T2, CTHRC1-His (Homo sapiens (Human), UniProt Q96CG8 30-243); test: indirect ELISA, CTHRC1-His coated, re-measurement
T2 construct: also called antigen CTHRC1-His
T2 sequence (Q96CG8 other isoform, or with tags, fused parts or gaps limits assumed): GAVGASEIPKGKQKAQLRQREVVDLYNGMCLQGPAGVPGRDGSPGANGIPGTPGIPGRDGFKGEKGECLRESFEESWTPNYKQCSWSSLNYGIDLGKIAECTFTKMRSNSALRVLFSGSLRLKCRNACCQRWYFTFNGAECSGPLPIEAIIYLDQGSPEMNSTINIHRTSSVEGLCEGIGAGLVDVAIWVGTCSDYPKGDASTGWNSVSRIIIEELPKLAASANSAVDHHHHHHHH

T1 sequence (Q96CG8 31-243 limits assumed): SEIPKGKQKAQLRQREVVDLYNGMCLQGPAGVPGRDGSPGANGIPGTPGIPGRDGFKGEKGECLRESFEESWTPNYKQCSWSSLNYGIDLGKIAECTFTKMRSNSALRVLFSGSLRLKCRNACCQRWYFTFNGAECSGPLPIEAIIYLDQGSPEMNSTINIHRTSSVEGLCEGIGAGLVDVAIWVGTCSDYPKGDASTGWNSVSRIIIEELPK

B2: hCMAb45 humanized anti-CTHRC1 antibody (antibody, V domains shown)
VH: QVQLVESGAEVKKPGASVKVSCKASGYSFTDYIILWVRQAPGQGLEWMGAINPYYGSTVYGQKFQGRLTITADGSMSTAYMELSSLRSEDTAVYYCARSGYGYDESAMDYWGQGTLVTVSS
VL: DIVMTQTPLSLPVTPGEPASISCRSSKSLLNSDGFTYLDWYLQKPGQSPQLLIYLVSNRFSGVPDRFSGSGSGTDFTLKISRVEAEDVGVYYCFQSNYLPLTFGQGTKLEIK
notes: Humanized IgG made by CDR grafting and expressed in HEK293F; also called SA2765; humanized 4H5
binding result (CTHRC1-His): binds

B4: hCMAb96 humanized anti-CTHRC1 antibody (antibody, V domains shown)
VH: QVQLVQSGAEVKKPGASVKVSCKASGYTFTSYWMHWVRQAPGQGLEWIGYIYPSSGTTNYNQKFQGRVTITADESTSTAYMELSPLRSEDTAVYYCTTESYWGQGTTVTVSS
VL: DIQMTQSPSSLSASLGDTITITCHASQNINVWLAWYQQKPGKAPKLLIYKASNLHSGVPSRFSGSGSGTDFTLTISSLQPEDIATYYCQQGQSYPLTFGQGTKVEIK
notes: Humanized IgG made by CDR grafting and expressed in HEK293F; also called SA2770; humanized 9E6
binding result (CTHRC1-His): binds

Continued, values first:

Kd [1]: 0.52 nM
B1: cCMAb45 anti-CTHRC1 chimeric antibody (antibody, V domains shown)
VH: EVQLQQSGPELVKPGASVKISCKASGYSFTDYIMLWVKQSHGKSLEWIGNINPYYGSTSYNLKFKGKATLTVDKSSSTAYMQLNSLTSEDSAVYYCARSGYGYDESAMDYWGQGTSVTVSS
VL: B2 VL with I2V, V3L, T14N, P15I, E17D, P18Q, R24K, S26T, V88L, Q105S
notes: Detected with anti-human kappa light chain-HRP, so the light chain is kappa; also called chimeric 4H5

Kd [1]: 0.43 nM
B3: cCMAb96 anti-CTHRC1 chimeric antibody (antibody, V domains shown)
VH: QVQLQQPGSELVRPGASVKLSCKASGYTFTSYWMHWVKQRPGQGLEWIGNIYPSSGTTNYDEKFKNKATLTVDTSSTTAYMHLSSLTSEDSAVYYCTTESYWGQGTTLTVSS
VL: B4 VL with Q3V, A34S, K42N, A43I, S56T, D70G, Q100G, V104L
notes: Detected with anti-human kappa light chain-HRP, so the light chain is kappa; also called chimeric 9E6
